Data set [1] has as its target HUβ(K86ac) K86ac (Escherichia coli BL21(DE3)) (UniProt P0ACF4). Nature of the data set: EMSA. The note with it: 4 µM HU dimer, 1 µM DNA; versus HUβ2; p < 0.05; 2-nt gap in bottom strand; 30 mM Tris pH 7.5, 100 mM NaCl, 0.02% Tween20, 0.5 mg/ml BSA; 30-bp DNA 1 µM, 18°C 10 min, 10% PAGE in TBE; long DNA 250 ng in 15 µL, 37°C 1 h, 0.5% agarose in ….
Another data set has as its target HUα;HUβ (Escherichia coli BL21(DE3);Escherichia …, UniProt P0ACF0;P0ACF4 1-90;1-90, |). Nature of the data set: EMSA; heterodimer; higher affinity than homodimer; 30 mM Tris pH 7.5, 100 mM NaCl, 0.02% Tween20, 0.5 mg/ml BSA; 30-bp DNA 1 µM, 18°C 10 min, 10% PAGE in TBE; long DNA 250 ng in 15 µL, 37°C 1 h, 0.5% agarose in. Conditions: protein: recombinant;recombinant; tags: C-terminal 6xHis;C-terminal 6xHis; copies: 1;1; three strands; 2-nt gap in bottom strand between S16 and S17; blunt outer ends.

Chain of HUα;HUβ (P0ACF0 whole entry, chain 1 of 2): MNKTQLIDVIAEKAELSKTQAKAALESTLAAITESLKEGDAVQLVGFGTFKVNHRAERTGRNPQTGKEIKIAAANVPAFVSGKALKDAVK
Chain of HUα;HUβ (P0ACF4 whole entry, chain 2 of 2): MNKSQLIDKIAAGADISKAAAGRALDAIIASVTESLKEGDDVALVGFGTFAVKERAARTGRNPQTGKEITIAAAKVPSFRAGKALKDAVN
Chain of HUβ(K86ac) K86ac (Escherichia coli BL21(DE3)) (P0ACF4 whole entry): as the sequence (P0ACF4 whole entry, chain 2 of 2) above

As for “CCAACTTCCCTAACCCAGCTGCGATCCGTA / TACGGATCGCAGC / GGTTAGGGAAGTTGG [30-bp duplex with 2-nt gap]”, the binding signal (fold free DNA) in data set [1] was > 4.

B1: 30-bp duplex with 2-nt gap (dsDNA)
DNA 1: CCAACTTCCCTAACCCAGCTGCGATCCGTA
DNA 2: TACGGATCGCAGC
DNA 3: GGTTAGGGAAGTTGG
modifications: 2-nt gap in bottom strand
As for B1, the binding result in the data set with HUα;HUβ was “binds”.
